± gives the standard deviation of the averaged measurements.
B1: library; a variant is named by its letters at N, in order (parent)
chain: GCUGUCACCGGUGUAUUACCCUAGUGGUCGACCGGUCUGAUGAGUCUNNNNNNAGACGAAACAGC

Experiments:
[1] = variants of: B1; experiment: normalized RNA/DNA level with ligand (relative to sTRSVctl = 100) (log10 (% of sTRSVctl)); ligand: hypoxanthine (xanthine aptamer); higher = less ribozyme self-cleavage, higher mRNA level; details: ligand concentration (+) RNA-Seq: 5 mM, HEK293T, reporter: mCherry (pCS4076), ligand present: yes
Outline: (§1)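 Library plasmids encoding reporter-linked ribozyme switches (mCherry, or eGFP for some folinic acid experiments) were transfected into HEK293T at 4 µg per 6-well well. Ligand, when used, was added 1 h before transfection. Total RNA was extracted with EDTA 72 h later, then reverse-transcribed, amplified, barcoded and sequenced. RNA level was RNA reads over DNA reads, divided by a spiked-in non-cleaving control (or the top 25 sequences), ×100, log10; only sequences with ≥100 DNA reads were kept.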

[2] = variants of: B1; experiment: normalized RNA/DNA level without ligand (relative to sTRSVctl = 100) (log10 (% of sTRSVctl)); ligand: hypoxanthine (xanthine aptamer); higher = less ribozyme self-cleavage, higher mRNA level; details: HEK293T, reporter: mCherry (pCS4076), ligand present: no
Outline: as §1

| Variant | normalized RNA/DNA level with ligand (log10) [1] | normalized RNA/DNA level without ligand (log10) [2] |
| --- | --- | --- |
| GCUGUCACCGGUGUAUUACCCUAGUGGUCGACCGGUCUGAUGAGUCUUCUAUAAGACGAAACAGC [UCUAUA] | 1.893 ± 0.016 | 1.858 ± 0.013 |
| GCUGUCACCGGUGUAUUACCCUAGUGGUCGACCGGUCUGAUGAGUCUUCUAUUAGACGAAACAGC [UCUAUU] | 1.93 ± 0.057 | 1.86 ± 0.023 |
| GCUGUCACCGGUGUAUUACCCUAGUGGUCGACCGGUCUGAUGAGUCUCCGUUUAGACGAAACAGC [CCGUUU] | 1.95 ± 0.028 | 1.86 ± 0.069 |
| GCUGUCACCGGUGUAUUACCCUAGUGGUCGACCGGUCUGAUGAGUCUUCUAACAGACGAAACAGC [UCUAAC] | 1.9378 ± 0.00086 | 1.85 ± 0.013 |
| GCUGUCACCGGUGUAUUACCCUAGUGGUCGACCGGUCUGAUGAGUCUUCUAGUAGACGAAACAGC [UCUAGU] | 1.99 ± 0.051 | 1.68 ± 0.019 |
| GCUGUCACCGGUGUAUUACCCUAGUGGUCGACCGGUCUGAUGAGUCUUCUAGGAGACGAAACAGC [UCUAGG] | 1.96 ± 0.072 | 1.92 ± 0.089 |
| GCUGUCACCGGUGUAUUACCCUAGUGGUCGACCGGUCUGAUGAGUCUGCUAUAAGACGAAACAGC [GCUAUA] | 1.93 ± 0.03 | 1.89 ± 0.034 |
| GCUGUCACCGGUGUAUUACCCUAGUGGUCGACCGGUCUGAUGAGUCUGCUAUCAGACGAAACAGC [GCUAUC] | 1.966 ± 0.016 | 1.84 ± 0.058 |
| GCUGUCACCGGUGUAUUACCCUAGUGGUCGACCGGUCUGAUGAGUCUUCUACAAGACGAAACAGC [UCUACA] | 1.94 ± 0.057 | 1.846 ± 0.017 |
| GCUGUCACCGGUGUAUUACCCUAGUGGUCGACCGGUCUGAUGAGUCUUCUACUAGACGAAACAGC [UCUACU] | 1.97 ± 0.067 | 1.917 ± 0.014 |
| GCUGUCACCGGUGUAUUACCCUAGUGGUCGACCGGUCUGAUGAGUCUUCUACCAGACGAAACAGC [UCUACC] | 1.96 ± 0.029 | 1.913 ± 0.0037 |
| GCUGUCACCGGUGUAUUACCCUAGUGGUCGACCGGUCUGAUGAGUCUUCUACGAGACGAAACAGC [UCUACG] | 1.9 ± 0.07 | 1.733 ± 0.011 |
| GCUGUCACCGGUGUAUUACCCUAGUGGUCGACCGGUCUGAUGAGUCUACUAUGAGACGAAACAGC [ACUAUG] | 1.89 ± 0.021 | 1.48 ± 0.015 |
| GCUGUCACCGGUGUAUUACCCUAGUGGUCGACCGGUCUGAUGAGUCUACUAUCAGACGAAACAGC [ACUAUC] | 1.98 ± 0.03 | 1.95 ± 0.046 |
| GCUGUCACCGGUGUAUUACCCUAGUGGUCGACCGGUCUGAUGAGUCUACUAUUAGACGAAACAGC [ACUAUU] | 1.928 ± 0.012 | 1.82 ± 0.03 |
| GCUGUCACCGGUGUAUUACCCUAGUGGUCGACCGGUCUGAUGAGUCUACUACCAGACGAAACAGC [ACUACC] | 2 ± 0.03 | 1.9024 ± 0.00086 |
| GCUGUCACCGGUGUAUUACCCUAGUGGUCGACCGGUCUGAUGAGUCUACUACAAGACGAAACAGC [ACUACA] | 1.92 ± 0.0088 | 1.841 ± 0.014 |
| GCUGUCACCGGUGUAUUACCCUAGUGGUCGACCGGUCUGAUGAGUCUACGUUUAGACGAAACAGC [ACGUUU] | 1.84 ± 0.022 | 1.53 ± 0.035 |
| GCUGUCACCGGUGUAUUACCCUAGUGGUCGACCGGUCUGAUGAGUCUCCUAUUAGACGAAACAGC [CCUAUU] | 1.95 ± 0.063 | 1.9 ± 0.039 |
| GCUGUCACCGGUGUAUUACCCUAGUGGUCGACCGGUCUGAUGAGUCUCCUAUGAGACGAAACAGC [CCUAUG] | 1.92 ± 0.13 | 1.86 ± 0.083 |
| GCUGUCACCGGUGUAUUACCCUAGUGGUCGACCGGUCUGAUGAGUCUCCUAUCAGACGAAACAGC [CCUAUC] | 2.03 ± 0.028 | 2.04 ± 0.03 |

| Variant | normalized RNA/DNA level with ligand (log10) [1] | normalized RNA/DNA level without ligand (log10) [2] |
| --- | --- | --- |
| GCUGUCACCGGUGUAUUACCCUAGUGGUCGACCGGUCUGAUGAGUCUCCUAAUAGACGAAACAGC [CCUAAU] | 1.94 ± 0.12 | 1.86 ± 0.1 |
| GCUGUCACCGGUGUAUUACCCUAGUGGUCGACCGGUCUGAUGAGUCUCCUAAGAGACGAAACAGC [CCUAAG] | 1.91 ± 0.05 | 1.66 ± 0.013 |
| GCUGUCACCGGUGUAUUACCCUAGUGGUCGACCGGUCUGAUGAGUCUCCUAACAGACGAAACAGC [CCUAAC] | 1.93 ± 0.042 | 1.825 ± 0.0078 |
| GCUGUCACCGGUGUAUUACCCUAGUGGUCGACCGGUCUGAUGAGUCUGCGUUUAGACGAAACAGC [GCGUUU] | 1.965 ± 0.002 | 1.74 ± 0.11 |
| GCUGUCACCGGUGUAUUACCCUAGUGGUCGACCGGUCUGAUGAGUCUCCUAGUAGACGAAACAGC [CCUAGU] | 1.919 ± 0.0097 | 1.872 ± 0.013 |
| GCUGUCACCGGUGUAUUACCCUAGUGGUCGACCGGUCUGAUGAGUCUCCUAGAAGACGAAACAGC [CCUAGA] | 1.962 ± 0.016 | 1.84 ± 0.057 |
| GCUGUCACCGGUGUAUUACCCUAGUGGUCGACCGGUCUGAUGAGUCUCCUAGGAGACGAAACAGC [CCUAGG] | 1.86 ± 0.055 | 1.77 ± 0.046 |
| GCUGUCACCGGUGUAUUACCCUAGUGGUCGACCGGUCUGAUGAGUCUCCUAGCAGACGAAACAGC [CCUAGC] | 1.91 ± 0.08 | 1.842 ± 0.0069 |
| GCUGUCACCGGUGUAUUACCCUAGUGGUCGACCGGUCUGAUGAGUCUGCUAAAAGACGAAACAGC [GCUAAA] | 1.95 ± 0.043 | 1.77 ± 0.023 |
| GCUGUCACCGGUGUAUUACCCUAGUGGUCGACCGGUCUGAUGAGUCUACUAGUAGACGAAACAGC [ACUAGU] | 1.88 ± 0.052 | 1.71 ± 0.07 |
| GCUGUCACCGGUGUAUUACCCUAGUGGUCGACCGGUCUGAUGAGUCUACUAGCAGACGAAACAGC [ACUAGC] | 1.881 ± 0.0075 | 1.79 ± 0.075 |
| GCUGUCACCGGUGUAUUACCCUAGUGGUCGACCGGUCUGAUGAGUCUGCUACUAGACGAAACAGC [GCUACU] | 1.95 ± 0.059 | 1.89 ± 0.026 |
| GCUGUCACCGGUGUAUUACCCUAGUGGUCGACCGGUCUGAUGAGUCUGCUACAAGACGAAACAGC [GCUACA] | 1.95 ± 0.02 | 1.85 ± 0.025 |
| GCUGUCACCGGUGUAUUACCCUAGUGGUCGACCGGUCUGAUGAGUCUCCUACGAGACGAAACAGC [CCUACG] | 1.94 ± 0.073 | 1.9 ± 0.041 |
| GCUGUCACCGGUGUAUUACCCUAGUGGUCGACCGGUCUGAUGAGUCUCCUACCAGACGAAACAGC [CCUACC] | 1.937 ± 0.0065 | 1.86 ± 0.049 |
| GCUGUCACCGGUGUAUUACCCUAGUGGUCGACCGGUCUGAUGAGUCUCCUACUAGACGAAACAGC [CCUACU] | 1.98 ± 0.13 | 1.96 ± 0.021 |
| GCUGUCACCGGUGUAUUACCCUAGUGGUCGACCGGUCUGAUGAGUCUGCUAGCAGACGAAACAGC [GCUAGC] | 1.89 ± 0.1 | 1.79 ± 0.079 |
| GCUGUCACCGGUGUAUUACCCUAGUGGUCGACCGGUCUGAUGAGUCUGCUAGAAGACGAAACAGC [GCUAGA] | 1.92 ± 0.031 | 1.71 ± 0.029 |
| GCUGUCACCGGUGUAUUACCCUAGUGGUCGACCGGUCUGAUGAGUCUGCUAGUAGACGAAACAGC [GCUAGU] | 1.92 ± 0.11 | 1.722 ± 0.0072 |
| GCUGUCACCGGUGUAUUACCCUAGUGGUCGACCGGUCUGAUGAGUCUGCUAGGAGACGAAACAGC [GCUAGG] | 1.83 ± 0.039 | 1.48 ± 0.02 |
| GCUGUCACCGGUGUAUUACCCUAGUGGUCGACCGGUCUGAUGAGUCUUCGUUUAGACGAAACAGC [UCGUUU] | 1.96 ± 0.042 | 1.8 ± 0.01 |

Source: the supplement of paper PMC6757056
